Results as given in the DeepSol protein solubility set.

experiment: soluble on expression in E. coli; label from the status in PepcDB or PDB records

Row | Sequence | soluble on expression in E. coli
1 | MTLKTSVLALLLDNVHVLLIANPESTTQTQKLFRRVVPALMALDGVSLEARFTHYGGHAEEMVAGLTVDDFDVIIPAGGDGTVNEVINGLLGSAEGDFRNLEDLPAIAVLPTGSANVFARALGYPTDPYAAADALVELIRKNHTRTITLGTWKGDDQGTRWFAVNAGFGIDADVIARVERARSFGFAASPLLYLQVSLRAWVKTQIKPPKITVEAVDSKGHKLQKEEVPMLLASNTNPWTFLGPLPVVTNPQNSFDTGLGLFGLTSVRGFGGVAAMMHLIGVGHGRKLEKLIAKRTIAFDDAEKVTLTCDSDQRFQVDGEYEGKPTKVVLESITDAVRVYAPKTHPTPPIMNWAVHLFKHVRDFLRVRTFGI | not soluble
2 | MTLNKTDRIVITLGKQIVHGKYVPGSPLPAEAELCEEFATSRNIIREVFRSLMAKRLIEMKRYRGAFVAPRNQWNYLDTDVLQWVLENDYDPRLISAMSEVRNLVEPAIARWAAERATSSDLAQIESALNEMIANNQDREAFNEADIRYHEAVLQSVHNPVLQQLSIAISSLQRAVFERTWMGDEANMPQTLQEHKALFDAIRHQDGDAAEQAALTMIASSTRRLKEIT | not soluble
3 | MTLPMQETRFSILLDELAAKQEAAIAPHLLADGTKVWIRKAGRHNARWRYALLGMVARYLKLGVLKPVPSLGGEPAIATESKRLYELRSAGIAVPELLAVRKNALMFGNLEGIPLDAQIRQEAEAGKSDAWLAGLEAIARVHKKRQFLSQAFARNMMSDGKNISFLDFEDDPSEVLTIAQCQARDWLCYIHSTALILKNGGLLEAAAEKWGGVLSDQPAEIQKLIAATVKPILPIRRLEHPRWGRDALRLAASISLISLADMPP | not soluble
4 | MTLSILVAHDLQRVIGFENQLPWHLPNDLKHVKKLSTGHTLVMGRKTFESIGKPLPNRRNVVLTSDTSFNVEGVDVIHSIEDIYQLPGHVFIFGGQTLFEEMIDKVDDMYITVIEGKFRGDTFFPPYTFEDWEVASSVEGKLDEKNTIPHTFLHLIRKK | soluble
5 | MTLTVAAPCVQTVTEPSKMEMQAESTSHITIRFTEMVGDAQKPTYGSISSAGADLYSAEDVVVPANGKLCVSTGLQIELPIGYYGRVAPRSGLAAKHFIDVGAGVIDSDYRGEVKVLLFNFNTTAFEVKTGDRIAKLICEQIGNGTYEEVKSLPSTNRGAGGFGSTGESTMNSETANPATNLERITVRFTQLNENAQTPTYGSEEAAGADLYSAEDITVPAHGKCCVSTGIQMELPFGYYGRVAPRSGLAAKHFIDVGAGVIDSDYRGEVKVLLFNFTDNAFEVKKGDRIAQLICEKIGHCVYEAASELENTDRGAGGFGSTGQNTMEAEPALKKSKTEQIKTSATSVTIQITKSNDNAQMPTYGSAEAAGADLYSAEDVTVPARGKLCVSTGIQMALPIGYYGRVAPRSGLAAKHFIDVGAGVIDSDYRGEVKVLLFNFGENDFEVKKGDRIAQLVCEQIALCTYSKVESLEVTERGAGGFGSTGQYITL | not soluble
6 | MTLWDRLSRLVRANLNDLLRRAEDPEKIIEQALLDMKQALREAREQVAEALAEQKRLEREVESHEREAALWEEKAREALKAGREDLAREALRRKKRALDLAEGFKAQLSEHKALTERLMTQLKALEAKIDEAEARKKLLLARKKGVEAAETVRRMESRLDQHPALEAFEEMEARILAMEDRHQALEALDQADLEKEFQALSAEKEVEEDLLRLKRELGQAAAALEHHHHHH | not soluble
7 | MTMHETTDRLFEIAKEQGVLKPADIAERLNISQQALKNWESRGIAAKALPEVAKAFGVSETWLRTGEGSRTAPVLIDPDLPHEVKDIHRPMTWSSNDPLPDDDYVFVPYLKESCFKGGVGTYEIPDYNGYRLPFGKSTLKRKGINPDNVFCCTLTGDSMEEKIAEDAAIAVDTGETAIRDGKIYAFAQDGMFRVKYLIRQPGNSVLIRSHNSGFYGDENAPLDSLTVIGRVFWWSVLD | not soluble
8 | MTMPVNTIMGLFAKSPIKPLQRHVVCVNECCSHLINFFEVCNKGDWEKAGEIRAQISHLEKEADVLKREIRLKLPRGLFMPVDRSDMLELLTQQDKLANLAKDIAGRVYGRQLVIPEPLQENFIAYVRRCLDAANQAQNVINELDELLETGFKGREVTLVAEMIHQLDVIEDDTDSMQIRLRQQLMAIESKMNPIDVMFLYKILEWVGGIADQAQRVGARLELMLSRS | not soluble
9 | MTMQFKIPTVLRSQEIIDKSFSRASKIEEPYFPDKVERIKKEVQDRISAIESISCSHLDKLVKRFPSIERMHPFYRSLIDLMFDVDQYKIALSKVDATSANIKRISTEYIRKLRPVKDVGNANQIMRAYYGRFASLIEDLNETLLFLGRCRDYIRKLPEVRTDLKTYIIAGMPNVGKSSLLASLTTAKPKIASYPFTTKNVIIGYNESGSERIQFIDTPGILDRDFSEMNEIEKNAILAIRFIEGKIIFLFDYSTESLYTREQQEHLYEQIKNNINPNIIRVQTKLDISTEKVENIAISVNIESGLEPLRKIIFDGGVIDVRGRNLEHHHHHH | soluble
10 | MTMRNFDLSPLMRQWIGFDKLANALQNAGESQSFPPYNIEKSDDNHYRITLALAGFRQEDLEIQLEGTRLSVKGTPEQPKEEKKWLHQGLMNQPFSLSFTLAENMEVSGATFVNGLLHIDLIRNEPEPIAAQRIAISERPALNS | not soluble
11 | MTNFIDRRLNSKNKSTVNRQRFLRRYKNQIKKSVSDAINQRGVTDIDSGESIVIPNRDLSEPTFHQGDGGVKDRVHPGNDQFSTGDRIPRPPKQQGQGGGQGDASDSGEGEDDFTFSISKEEYLNLLFEDLELPNLERNQLDKLIEYKTVRSGFCAEGVASNIDIVKSLQGSIARRIAMTASKRKQIKVLELELQALNNDKHDNIQRKRDLIAEIETLKNKISKVPFIDTFDLRFRNYAKQAVPTSKAVMFCLMDVSGSMDQATKEMAKRFYILLYLFLSRTYKNIDVVYIRHHTQAKEVDEHEFFYSQETGGTIASSALELMNDIITERYNDNQWNIYGAQASDGDNWADDSPRCQALLEQQILPKSRYFSYIEITQRAHQTLWKHYQQVEESHTNFAMQHIKSVADIYPVFRKFFKKNTKSAALEHHHHHH | soluble
12 | MTNFQRARSEEQRAVRRQAILDTTAAMLEEMPVGEVSLNELSRRVGLAKSNVLRYFESREAILLELLDRAWQQWVADLPALVHAGVDQGAPVSRRAEQFAAVIAASLAGRQVLCDLLSAQAGVLEHNVSPQVAARYKRAAVANVADIAALAHQHLPELGASAPQLTAVMIMAVGAVWTHARPSPAMLSAYEADPSLTAFKLDFVTTLQEMLATLTAGTIARESA | not soluble
13 | MTNLTNYHSHCLYCDGRANMEDFIRFAISEGFSSYGISSHAPLPFSTAWTMEWDRMDDYLSEFARLKEKYADKIELAIGLEIDYLNEESHPAIPRFQELPLDYRIGSVHMLYSPQGKVVDIDTPADIFRQLIDAHFEGDLDYVVHLYYKNLLRMVELGGFDILGHADKMHYNASCYRPGLLDEPWYDALVRDYFAEIARHGYIVEINTKSYHDLGTFYPNERYFPLLKELGIRVQVNSDAHYPERINNSRAEALAALKKVGFDTVVEWHGGQWKDMPLLQLEHHHHHH | soluble
14 | MTNNITPIHEYKKYWAECFGTAPFLPTSRKEMDALGWDSCDIIIVTGDAYVDHPSFGMAIIGRLLEAQGFRVGIIAQPEWQNKNAFMQLGKPNLFFGITAGNMDSMINRYTADKKLRHDDAYTPNNEGGKRPDRATLVYSQRCREAYKEVPIVLGGIEASLRRVAHYDYWSDKVRRSVLFDAKADILLFGNAERALVEVAHRIANGEDISTMTNIRGTAVNLPAAPEGYTVIDSSRIEKPRKEAFVPKNPYEVETQCETKKDEPVAQPITIRPSRHDAATTAVRLPSFEKLRNDRILYAHASRVLHLETNPYSGRALLQSHGDRELWVNQAPIPLTTEEMDFVFGLPYARVPHPMYGKAKIPAYDMIKTS | not soluble
15 | MTNNNQIGENKEQTIFDHKGNVIKTEDREIQIISKFEEPLIVVLGNVLSDEECDELIELSKSKLARSKVGSSRDVNDIRTSSGAFLDDNELTAKIEKRISSIMNVPASHGEGLHILNYEVDQQYKAHYDYFAEHSRSAANNRISTLVMYLNDVEEGGETFFPKLNLSVHPRKGMAVYFEYFYQDQSLNELTLHGGAPVTKGEKWIATQWVRRGTYK | soluble
16 | MTNPMQATRKIISITDQNVVHREDQVAREYPLTIYVNDREFATMVCTQADLEEMVIGFLGSEGLIRFYKQDVASLSIDESRGFAYVSLTKELPTEWQFYSKRMIGSCCGKSRQSFYFHNDAKTAKTSMSRTTMTPEQCFRLMEALQEQSVIFQQTGGVHNAALATPEQMLISRTDIGRHNALDKLYGYCLMNGVPVRDKVLLFSGRISSEVLLKAAKIGVGIMLSKSAPTELALTMAEELNITTAGFIRDGRMNIYTVPERILTPKKEVQLEHHHHHH | soluble
17 | MTPDFQIVTQRLQLRLITADEAEELVQCIRQSQTLHQWVDWCHALFSQQEAEQFIQATRLNWVKAEAYGFGVFERQTQTLVGMVAINEFYHTFNMASLGYWIGDRYQRQGYGKEALTALILFCFERLELTRLEIVCDPENVPSQALALRCGANREQLAPNRFLYAGEPKAGIVFSLIP | soluble
18 | MTPFKELQKFIHWKERFLRDYEKIEKGELEKIREEVKEMLGEEPDERLLKALRSMYVGGMEHRVEDEEIRYWTNWGGVKTYETFNRFPLLSDIELAFVFWALGKLFVPLLMHETGVKSEPFKKLSREEQEEAVLDELDTLWETQLTLILQALQFLDLKSISSEKPSSEG | not soluble
19 | MTPNKEDYLKCIYEIGIDLHKITNKEIAARMQVSPPAVTEMIKRMKSENLILKDKECGYLLTDLGLKLVSELYRKHRLIEVFLVHHLDYTSDQIHEEAEVLEHTVSDLFVERLDKLLGFPKTCPHGGTIPAKGELLVEINNLPLADIKEAGAYRLTRVHDSFDILHYLDKHSLHIGDQLQVKQFDGFSNTFTILSNDEDLQVNMDIAKQLYVEKIN | not soluble
20 | MTQDDFFDLTPVEDFDSYDPLADTEDEEFDLEAPAESGMFLVEPGEFPTVDELASQAEALQQAPAAQRIATLFDHMERSRKILLGILEMCDGQVQPNELVISRIEKLKANNKSVYTPDNMCMMLVRAGALRRVTQDGTDYEDIEDTLEPKRVVIDGVEYLEPVQAPQICWLTTPEGSQVVAADQPRARLRELLENEPQYRHVFRTVLEMCAPDGGTTQKALSAALDNDPALMHPRMYAMRFAERLAQNDALEWRDNAWRITDIGSEGLDIIAELDAAEQADD | not soluble
21 | MTQDELYMKEAIKEAKKAEEKGEVPIGAVLVINGEIIARAHNLRETEQRSIAHAEMLVIDEACKALGTWRLEGATLYVTLEPCPMCAGAVVLSRVEKVVFGAFDPKGGCSGTLMNLLQEERFNHQAEVVSGVLEEECGGMLSAFFRELRKKKKAARKNLSEMGHHHHHHSH | not soluble
22 | MTQEEMKHIDPSGNHTISHLCEAWKLSMRYQVKPSTFACYATIIQKHIRPSIGTVEMEEMNNEILSEFILDRQSRGLSANTMRLILFLLKSIIRAGERRGICPAEPLDFFLPKDRGYEMKLLSQDNRRKLLSWLAGCRTNFELGLLLSLSTGIRVGELCGMKWEDVDLEEGVLHIRRTVSRIRNTDQKNTAAKTVLYIGSPKTGTSQREIPLPDFMIPRLKEKKREAGCYLLTGRTGCMEPRGVQRRFKN | not soluble
23 | MTQFETERLILRPMTAADHDALADMIFDPQVVAYLRYRRVQSPAAFEQLFTTHFLADTTTVFGIERRRDHQLIGFYEFHGSGATGELTYALSPAAWGHGYVAEAGNCLMHYGFETLNYETIEAHYASANPNSGRVMAKMGMQAAGELHTFTSDKGEVIHVMRYLLTKATWRQLSA | not soluble
24 | MTQKEISIIHPRPSSIVAALYTLRDLNVDVAILHGPPGCSFKHARLLEEDGIHVVTTGLDENGFVFGGHDRLVEVINKSIELFNPKILGVVGTCASMIIGEEMHDAVLEANPDIPVIEVEVHAGYHNNTRGVLFALESALDAGIIDRKEFERQEYLEHHHHHH | soluble
